Assay results published in patent EP4786489A1, “IL-22 MUTANT, PREPARATION METHOD THEREFOR, AND USE THEREOF” (Nanjing Novoacine Biotechnology Co., Ltd., priority 2023, dated 2025).

Legend:
Assay in all cases: cell-based or functional assay
[1] = molecular target: heterodimeric receptor complex (IL-22Rα/IL-10Rβ) (human) (UniProt Q8N6P7)
[2] = molecular target: T1, heterodimeric receptor complex (IL-22Rα/IL-10Rβ) (human, UniProt Q8N6P7 16-574; Q08334 20-325)
T1 sequence (looked up) 1: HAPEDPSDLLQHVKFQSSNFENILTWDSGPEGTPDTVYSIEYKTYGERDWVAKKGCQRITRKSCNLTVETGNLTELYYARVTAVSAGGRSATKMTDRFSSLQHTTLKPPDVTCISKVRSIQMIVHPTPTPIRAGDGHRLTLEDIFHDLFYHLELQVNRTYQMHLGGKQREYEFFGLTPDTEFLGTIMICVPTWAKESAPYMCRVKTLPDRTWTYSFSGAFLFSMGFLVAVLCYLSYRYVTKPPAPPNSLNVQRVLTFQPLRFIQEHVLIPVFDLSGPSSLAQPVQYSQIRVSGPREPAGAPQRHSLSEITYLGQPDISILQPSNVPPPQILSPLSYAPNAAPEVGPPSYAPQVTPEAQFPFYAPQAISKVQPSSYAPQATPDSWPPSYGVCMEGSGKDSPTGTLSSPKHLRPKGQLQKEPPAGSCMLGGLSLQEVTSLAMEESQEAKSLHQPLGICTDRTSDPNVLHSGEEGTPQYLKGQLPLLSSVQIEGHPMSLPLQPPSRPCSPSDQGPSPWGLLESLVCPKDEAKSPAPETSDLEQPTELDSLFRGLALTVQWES
T1 sequence (looked up) 2: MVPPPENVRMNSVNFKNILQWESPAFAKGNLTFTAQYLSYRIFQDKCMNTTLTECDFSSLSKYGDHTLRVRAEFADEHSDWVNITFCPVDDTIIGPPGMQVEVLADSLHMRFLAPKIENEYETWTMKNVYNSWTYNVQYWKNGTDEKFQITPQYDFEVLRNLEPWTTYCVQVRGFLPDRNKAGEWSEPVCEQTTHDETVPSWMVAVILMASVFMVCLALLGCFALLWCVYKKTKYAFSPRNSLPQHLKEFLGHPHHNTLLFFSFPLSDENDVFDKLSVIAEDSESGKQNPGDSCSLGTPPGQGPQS

[3] = molecular target: T1, heterodimeric receptor complex …; remark: listed apart in the source
[4] = molecular target: T1, heterodimeric receptor complex …; remark: listed apart in the source
[5] = molecular target: T1, heterodimeric receptor complex …; remark: listed apart in the source
[6] = molecular target: T1, heterodimeric receptor complex …; remark: listed apart in the source

IL-22-Fc (Fc fusion)
EC50 for STAT1 Activation (nM); pSTAT1 FACS, HT-29 cells [1]: 49.9 nM | EC50 for STAT3 Activation (nM); pSTAT3 FACS, HT-29 cells [1]: 12.9 nM | HaCaT: HT29 ratio (higher is better); p-STAT3 EC50, FACS [1]: 5.8 | STAT1/STAT3 EC50 ratio (higher is better); FACS, HT29 cells [1]: 3.2 | STAT1/STAT3 EC50 ratio (higher is better); FACS, HT-29 cells [1]: 3.9 | STAT1 Activation EC50 (nM); pSTAT1 FACS, HT29 cells [1]: 12.6 nM | STAT3 Activation EC50 (nM); pSTAT3 FACS, HT29 cells [1]: 3.9 nM | p-STAT3 EC50 (nM), HaCaT; FACS [1]: 22.7 nM

B1: hB3-his (ligand)
chain: APISSHCRLDKENFQQPYITNRTFMLAKEASLADNNTDVRLIGEKLFHGVSMSERCYLMKQVLNFTLEEVLFPQSDRFQPYMAEVVPFLAALSNALSTCHIEGDDLHIQRNVQKLKDTVKKLGESGEIKAIGELDLLFMSLRNACIHHHHHH
STAT1/STAT3 Ratio (higher is better); ELISA, COLO205 cells [2]: 2.34 | STAT1 Activation EC50 (nM); p-STAT1 ELISA, COLO205 cells [2]: 17.4 nM | STAT1 Activation, Fold change relative to wt IL-22; p-STAT1 ELISA, COLO205 cells [2]: 18.5 fold | STAT3 Activation EC50 (nM); p-STAT3 ELISA, COLO205 cells [2]: 0.525 nM | STAT3 Activation, Fold change relative to wt IL-22; p-STAT3 ELISA, COLO205 cells [2]: 7.92 fold | STAT1/STAT3 EC50 ratio (higher is better); FACS, HT29 cells [3]: 9.3 | STAT1 Activation EC50 (nM); pSTAT1 FACS, HT29 cells [3]: 23 nM | STAT3 Activation EC50 (nM); pSTAT3 FACS, HT29 cells [3]: 2.47 nM | EC50 for STAT1 Activation (nM); pSTAT1 FACS, HT-29 cells [4]: 279 nM | EC50 for STAT3 Activation (nM); pSTAT3 FACS, HT-29 cells [4]: 4.13 nM | STAT1/STAT3 EC50 ratio (higher is better); FACS, HT-29 cells [4]: 67.5

B2: wt IL-22 (ligand)
chain: APISSHCRLDKSNFQQPYITNRTFMLAKEASLADNNTDVRLIGEKLFHGVSMSERCYLMKQVLNFTLEEVLFPQSDRFQPYMQEVVPFLARLSNRLSTCHIEGDDLHIQRNVQKLKDTVKKLGESGEIKAIGELDLLFMSLRNACI
STAT1/STAT3 Ratio (higher is better); ELISA, COLO205 cells [2]: 1 | STAT1 Activation EC50 (nM); p-STAT1 ELISA, COLO205 cells [2]: 0.939 nM | STAT1 Activation, Fold change relative to wt IL-22; p-STAT1 ELISA, COLO205 cells [2]: 1 fold | STAT3 Activation EC50 (nM); p-STAT3 ELISA, COLO205 cells [2]: 0.0663 nM | STAT3 Activation, Fold change relative to wt IL-22; p-STAT3 ELISA, COLO205 cells [2]: 1 fold | EC50 fold change of the test candidate relative to wt IL-22; STAT3 reporter gene assay, COLO205/SIE cells (Assay1) [5]: 1 fold | EC50 fold change of the test candidate relative to wt IL-22; STAT3 reporter gene assay, COLO205/SIE cells (Assay2) [5]: 1 fold | EC50 for STAT3 Activation (nM); STAT3 reporter gene assay, COLO205/SIE cells (Assay1) [5]: 0.00529 nM | EC50 for STAT3 Activation (nM); STAT3 reporter gene assay, COLO205/SIE cells (Assay2) [5]: 0.00303 nM

B3: 40K-PEG-IL22-P50C (ligand)
chain: APISSHCRLDKSNFQQCYITNRTFMLAKEASLADNNTDVRLIGEKLFHGVSMSERCYLMKQVLNFTLEEVLFPQSDRFQPYMQEVVPFLARLSNRLSTCHIEGDDLHIQRNVQKLKDTVKKLGESGEIKAIGELDLLFMSLRNACI
modifications: Cys at position 17 (SEQ ID NO:1 numbering) conjugated to 40 kDa PEG-maleimide (thioether linkage)
STAT1/STAT3 EC50 ratio (higher is better); FACS, HT29 cells [3]: 7.8 | STAT1 Activation EC50 (nM); pSTAT1 FACS, HT29 cells [3]: 369 nM | STAT3 Activation EC50 (nM); pSTAT3 FACS, HT29 cells [3]: 47.5 nM

B4: 60K-PEG-IL22-D109C (ligand)
chain: APISSHCRLDKSNFQQPYITNRTFMLAKEASLADNNTDVRLIGEKLFHGVSMSERCYLMKQVLNFTLEEVLFPQSCRFQPYMQEVVPFLARLSNRLSTCHIEGDDLHIQRNVQKLKDTVKKLGESGEIKAIGELDLLFMSLRNACI
modifications: Cys at position 76 (SEQ ID NO:1 numbering) conjugated to 60 kDa PEG-maleimide (thioether linkage)
HaCaT: HT29 ratio (higher is better); p-STAT3 EC50, FACS [6]: 12.9 | p-STAT3 EC50 (nM), HaCaT; FACS [6]: 7.44 nM | STAT1/STAT3 EC50 ratio (higher is better); FACS, HT29 cells [3]: 16.3 | STAT1 Activation EC50 (nM); pSTAT1 FACS, HT29 cells [3]: 9.41 nM | STAT3 Activation EC50 (nM); pSTAT3 FACS, HT29 cells [3]: 0.577 nM

B5: 40K-PEG-IL22-P120C (ligand)
chain: APISSHCRLDKSNFQQPYITNRTFMLAKEASLADNNTDVRLIGEKLFHGVSMSERCYLMKQVLNFTLEEVLFPQSDRFQPYMQEVVCFLARLSNRLSTCHIEGDDLHIQRNVQKLKDTVKKLGESGEIKAIGELDLLFMSLRNACI
modifications: Cys at position 87 (SEQ ID NO:1 numbering) conjugated to 40 kDa PEG-maleimide (thioether linkage)
STAT1/STAT3 EC50 ratio (higher is better); FACS, HT29 cells [3]: 9.1 | STAT1 Activation EC50 (nM); pSTAT1 FACS, HT29 cells [3]: 55.3 nM | STAT3 Activation EC50 (nM); pSTAT3 FACS, HT29 cells [3]: 6.05 nM

B6: 80K-PEG-IL22-P50C (ligand)
chain: APISSHCRLDKSNFQQCYITNRTFMLAKEASLADNNTDVRLIGEKLFHGVSMSERCYLMKQVLNFTLEEVLFPQSDRFQPYMQEVVPFLARLSNRLSTCHIEGDDLHIQRNVQKLKDTVKKLGESGEIKAIGELDLLFMSLRNACI
modifications: Cys at position 17 (SEQ ID NO:1 numbering) conjugated to 80 kDa PEG-maleimide (thioether linkage)
STAT1/STAT3 EC50 ratio (higher is better); FACS, HT29 cells [3]: 3.3 | STAT1 Activation EC50 (nM); pSTAT1 FACS, HT29 cells [3]: 62.3 nM | STAT3 Activation EC50 (nM); pSTAT3 FACS, HT29 cells [3]: 18.9 nM

B7: 60K-PEG-IL22-P50C (ligand)
chain: APISSHCRLDKSNFQQCYITNRTFMLAKEASLADNNTDVRLIGEKLFHGVSMSERCYLMKQVLNFTLEEVLFPQSDRFQPYMQEVVPFLARLSNRLSTCHIEGDDLHIQRNVQKLKDTVKKLGESGEIKAIGELDLLFMSLRNACI
modifications: Cys at position 17 (SEQ ID NO:1 numbering) conjugated to 60 kDa PEG-maleimide (thioether linkage)
STAT1/STAT3 EC50 ratio (higher is better); FACS, HT29 cells [3]: 2.4 | STAT1 Activation EC50 (nM); pSTAT1 FACS, HT29 cells [3]: 134 nM | STAT3 Activation EC50 (nM); pSTAT3 FACS, HT29 cells [3]: 55.5 nM

B8: 80K-PEG-IL22-P120C (ligand)
chain: APISSHCRLDKSNFQQPYITNRTFMLAKEASLADNNTDVRLIGEKLFHGVSMSERCYLMKQVLNFTLEEVLFPQSDRFQPYMQEVVCFLARLSNRLSTCHIEGDDLHIQRNVQKLKDTVKKLGESGEIKAIGELDLLFMSLRNACI
modifications: Cys at position 87 (SEQ ID NO:1 numbering) conjugated to 80 kDa PEG-maleimide (thioether linkage)
STAT1/STAT3 EC50 ratio (higher is better); FACS, HT29 cells [3]: 29 | STAT1 Activation EC50 (nM); pSTAT1 FACS, HT29 cells [3]: 574 nM | STAT3 Activation EC50 (nM); pSTAT3 FACS, HT29 cells [3]: 19.8 nM

B9: 60K-PEG-IL22-P120C (ligand)
chain: APISSHCRLDKSNFQQPYITNRTFMLAKEASLADNNTDVRLIGEKLFHGVSMSERCYLMKQVLNFTLEEVLFPQSDRFQPYMQEVVCFLARLSNRLSTCHIEGDDLHIQRNVQKLKDTVKKLGESGEIKAIGELDLLFMSLRNACI
modifications: Cys at position 87 (SEQ ID NO:1 numbering) conjugated to 60 kDa PEG-maleimide (thioether linkage)
HaCaT: HT29 ratio (higher is better); p-STAT3 EC50, FACS [6]: 37.7 | p-STAT3 EC50 (nM), HaCaT; FACS [6]: 428 nM | STAT1/STAT3 EC50 ratio (higher is better); FACS, HT29 cells [3]: 7.6 | STAT1 Activation EC50 (nM); pSTAT1 FACS, HT29 cells [3]: 86.2 nM | STAT3 Activation EC50 (nM); pSTAT3 FACS, HT29 cells [3]: 11.4 nM

B10: 80K-PEG-IL22-D109C (ligand)
chain: APISSHCRLDKSNFQQPYITNRTFMLAKEASLADNNTDVRLIGEKLFHGVSMSERCYLMKQVLNFTLEEVLFPQSCRFQPYMQEVVPFLARLSNRLSTCHIEGDDLHIQRNVQKLKDTVKKLGESGEIKAIGELDLLFMSLRNACI
modifications: Cys at position 76 (SEQ ID NO:1 numbering) conjugated to 80 kDa PEG-maleimide (thioether linkage)
STAT1/STAT3 EC50 ratio (higher is better); FACS, HT29 cells [3]: 7.1 | STAT1 Activation EC50 (nM); pSTAT1 FACS, HT29 cells [3]: 7 nM | STAT3 Activation EC50 (nM); pSTAT3 FACS, HT29 cells [3]: 0.984 nM

B11: 40K-PEG-IL22-D109C (ligand)
chain: APISSHCRLDKSNFQQPYITNRTFMLAKEASLADNNTDVRLIGEKLFHGVSMSERCYLMKQVLNFTLEEVLFPQSCRFQPYMQEVVPFLARLSNRLSTCHIEGDDLHIQRNVQKLKDTVKKLGESGEIKAIGELDLLFMSLRNACI
modifications: Cys at position 76 (SEQ ID NO:1 numbering) conjugated to 40 kDa PEG-maleimide (thioether linkage)
STAT1/STAT3 EC50 ratio (higher is better); FACS, HT29 cells [3]: 31.3 | STAT1 Activation EC50 (nM); pSTAT1 FACS, HT29 cells [3]: 10.9 nM | STAT3 Activation EC50 (nM); pSTAT3 FACS, HT29 cells [3]: 0.348 nM
